From the DeepSol protein solubility set come the findings set out here.

This data set is described as follows: soluble on expression in E. coli; label from the status in PepcDB or PDB records.
As for “MGSSHHHHHHSSGLVPRGSHMSSENIPLRVQFKRMKAAEWARSDVILLESEIGFETDTGFARAGDGHNRFSDLGYISPLDYNLLTNKPNIDGLATKVETAQKLQQKADKETVYTKAESKQELDKKLNLKGGVMTGQLKFKPAATVAYSSSTGGAVNIDLSSTRGAGVVVYSDNDTSDGPLMSLRTGKETFNQSALFVDYKGTTNAVNIAMRQPTTPNFSSALNITSGNENGSAMQLRGSEKALGTLKITHENPSIGADYDKNAAALSIDIVKKTNGAGTAAQGIYINSTSGTTGKLLRIRNLSDDKFYVKSDGGFYAKETSQIDGNLKLKDPTANDHAATKAYVDKAISELKKLILKK”, the “soluble on expression in E. coli” value is “soluble”.

In the case of “MGSSHHHHHHSSGLVPRGSHMSSTMSADQSNRARPVIRIKENPEDFTVEEVADIPKSDNGKYTIIKAEIIDWDTNRIVEEIASALRISRKRISYAGTKDKRARKIQYFCINAPVDVSVLAFKGFRIIDRFRSDHYLRLGDLTANHFRIRFQGASDDYIEQRYEKMMECGGFPNYFGQQRFGSRRRNTHDVGRLIVTGRYEDAVRLYLYDERYDIEDYRREFIETLDYNRALEKFPRTLRFERSIIGYYAQHHTFKGAFDALPKNLSIMFVHAYQSYLFNRMLSLRIEKYGLNRAIPGDTAFPVDRYFNPDKSRPVEVNEVNVDTINQLIERDRLRVALPIIGSEVGPDQSDFGEIEKKILEEEHVDRSMFRNSEYPHLSSTGDRRIVSAKPVDFSVSNSVMDFTLGRGIYATTLISTFGDLVDFDAESDGF”, the “soluble on expression in E. coli” value was “soluble”.

Turning to GSLLKPARFMCLPCGIAFSSPSTLEAHQAYYCSHRI, the “soluble on expression in E. coli” value is on record as “soluble”.

On to “MVGGGLSTDIAGGRTMTCEFRNSRCISDDDDLIRMKEDDTETQKSEFHRKASGFFLRGSGYCRSIFRVSENLEKDWQACNRRAYMSGLVDYQSMARKAYEKLQELGISRHVTPLFAENVTVPIPGVVFLDCVVNDMTLISRIAGLVARAAFHIKNESPQHGLIEVGAPYNLVDNISYPGLIRFCGKVRNNLGNNYNIQCDIFQMCQFGARSLGSVHNTITVTVAAAAPIPNLVPRGILAPPPPPPPLPLPPVRRRAPKVLNLQKFIDAYQPVQSTGYPIGTPAAAAAVEKESAAPVVPENAEKEVAPKIAQKLELCGTPCKIKAEPEDEDIIILKHIAPNTDGGVKRVGSRNKIGKRSQKLKTRRL”, for which the “soluble on expression in E. coli” value is “not soluble”.

As to “SFKKFDEKENVSNCIQLKTSVIKGIKNQLLEQFPGIEPWLNQIMPKKDPVKIVRCHEHIEILTVNGELLFFRQREGPFYPTLRLLHKYPFILPHQQVDKGAIKFVLSGANIMCPGLTSPGAKLYPAAVDTIVAIMAEGKQHALCVGVMKMSAEDIEKVNKGIGIENIHYLNDGLWHMKTYK”, the “soluble on expression in E. coli” value is recorded as “soluble”.

Consider “AHHHHHHGSKNLYLPITIDHIARVEGKGGVEIIIGDDGVKEVKLNIIEGPRFFEAITIGKKLEEALAIYPRICSFCSAAHKLTALEAAEKAVGFVPREEIQALREVLYIGDMIESHALHLYLLVLPDYRGYSSPLKMVNEYKREIEIALKLKNLGTWMMDILGSRAIHQENAVLGGFGKLPEKSVLEKMKAELREALPLAEYTFELFAKLEQYSEVEGPITHLAVKPRGDAYGIYGDYIKASDGEEFPSEKYRDYIKEFVVEHSFAKHSHYKGRPFMVGAISRVINNADLLYGKAKELYEANKDLLKGTNPFANNLAQALEIVYFIERAIDLLDEALAKWPIKPRDEVEIKDGFGVSTTEAPRGILVYALKVENGRVSYADIITPTAFNLAMMEEHVRMMAEKHYNDDPERLKILAEMVVRAYDPCISCSVHVVRL”, for which the “soluble on expression in E. coli” value is listed as “soluble”.

Consider “RTDTIMVVNVGNHAKKIKMVSFMRDTLINIPGYSYNDNSYDLKLNSAFNLGEQEDHHGAEYVRRALKHNFDIDIKYYVMVDFETFAEAIDTLFPNGVKIDAKFATVGGVAVDSVEVPDDLRMKNGVVPNQTIEVGEQRMDGRTLLNYARFRKDDEGDFGRTVRQQQVMSAVMSQIKD”, for which the “soluble on expression in E. coli” value was “not soluble”.

As for “MAHHHHHHMALLVYLNNKQTHSFIAVRKSSSLLFSPGNFKAIYQRIYEHLNDQYEERGQLEAGEEILTVKPNVFAQNGVIDFDGVRKMWTSHIVPQLRRCVTGDHLANTTDNSVVSIEESAVFCDIGSGVGNVCLQLLAETNCRKVVGVEVIPSRHRAATTAFAKALSYFPENFSGKQAIFIQDDFVNCARRMVEENVNVIFTHSWMFDDELMKRLTELVVSLPALLCVVTSRPLHENLLVGSQMKLVSYVHLTADWNDEAPFFIYRKIT”, the “soluble on expression in E. coli” value is “not soluble”.

Turning to “MAHHHHHHMSSKKQDASAELLSELRAVIVSGGSMGTLDEQKVRSVVEKTNESYACIQSIATNPYADLTQPYYVSSVNYYRAKCLRDKRCLLTYLLWRQKQVAKAWWSVRDNLLEGSLSAAEAKYLSDYQGIMVEYMTSFDVPLDLRAYLWRPPSVRQLEVRGRCHYEFRSSVSGKTIIINIGDQLFLSFEEAEPLIQQGIVELVGH”, the “soluble on expression in E. coli” value is reported as “not soluble”.

On to “MESKRLDNAALAAGISPNYINAHGKPQSISAETKRRLLDAMHQRTATKVAVTPVPNVMVYTSGKKMPMVVEGSGEYSWQLTTEEGTQYKGHVTGGKAFNLPTKLPEGYHTLTLTQDDQRAHCRVIVAPKRCYEPQALLNKQKLWGACVQLYTLRSEKNWGIGDFGDLKAMLVDVAKRGGSFIGLNPIHALYPANPESASPYSPSSRRWLNVIYIDVNAVEDFHLSEEAQAWWQLPTTQQTLQQARDADWVDYSTVTALKMTALRMAWKGFAQRDDEQMAAFRQFVAEQGDSLFWQAAFDALHAQQVKEDEMRWGWPAWPEMYKNVDSPEVRQFCEEHRDDVDFYLWLQWLAYSQFAACWEISQGYEMPIGLYRDLAVGVAEGGAETWCDRELYCLKASVGAPPDILGPLGQNWGLPPMDPHIITARAYEPFIELLRANMQNCGALRIDHVMSMLRLWWIPYGETADQGAYVHYPVDDLLSILALESKRHRCMVIGEDLGTVPVEIVGKLRSSGVYSYKVLYFENDHEKTFRAPKAYPEQSMAVAATHDLPTLRGYWESGDLTLGKTLGLYPDEVVLRGLYQDRELAKQGLLDALHKYGCLPKRAGHKASLMSMTPTLNRGLQRYIADSNSALLGLQPEDWLDMAEPVNIPGTSYQYKNWRRKLSATLESMFADDGVNKLLKDLDRRRRAAAKKK”, for which the “soluble on expression in E. coli” value is reported as “not soluble”.

As for “MRDFNNAQITRLKVRQNAVFEKLDLEFKDGLSAISGASGVGKSVLIASLLGAFGLKESNASNIEVELIAPFLDTEEYGIFREDEHEPLVISVIKKEKTRYFLNQTSLSKNTLKALLKGLIKRLSNDRFSQNELNDILMLSLLDGYIQNENKAFSPLLGALEEKFTRLEKLEKERRLLEDKKRFQKDLEERLNFEKMKLERLDLKEDEYERLLEQKKLLSSKEKLNDKIALAL”, the “soluble on expression in E. coli” value is given as “not soluble”.

For the sequence “MGSDKIHHHHHHMKISFPHMGYSYIAFKWLVNHLGHECIVPPEPSKKTLDLGVRYSPEFACIPFKILMGTYLEVAEKGAEIILTSGGMGPCRAGYYWVMHQYILDEIGKKVKVIAFEPPLCDLRDFWRKLHRLRVSGGLSVKAFIQVLKVAWEKIKAIDDMEMQSHSIRPYEEKRGDTTRALWKALEFVDEANGEDEVNEARQEGLKVLQGVRRDENRDPLKIGIIGEIYVVLEPSANHYLQIMLGEMGVYTDRSIYLSSYTRKNTIVNLEGDIFQVARPYLNEAPIGGHGVNSIGETILYARHGFDGVVQLAPFACIPEIVAKSIIPAVSRDFNIPVLTLFIDEQTGKAGVQTRLEAFVDLLEKRREHKRQRERWAI”, the “soluble on expression in E. coli” value was “not soluble”.

For the sequence “MAHHHHHHMSVDFTSKAVDLLKRATTLDEAKEYEEAYRWYMDSIEVFMTAIKYENKNPTKKEMLKNKVRQVMERAKMIKEYLDGSKEGDSNVGNTGSTAQKTASASKKAKEEEEDKQRMRNALGGAIVRVKPNVNWSQIAGLEGAKEALKEAVILPVRFPQLFTGNRKPWKGILMYGPPGTGKSFLAKAVATEADGTFLSVSSADLMSRWLGDSEKLVRNLFEMAREAWKTDGKPAIIFIDEIDSMCSSRTDGENDALRRIKTEFLVQMQGVGHEDDGVLVLGATNIPWSLDSAVRRRFERRIYIPLPDVQARYQMFKIHIGDTPHTLTEKDWYELARMTDKYSGSDINIVVRNAMMECIRSVQVATHFKRVTGPDLKDPTRMTNNRLVPCSPGDPEGFAMTAQEITEPGLLMPLPVTMQDFVKALRTARPSVADDDITQHLKFTEEFGQEG”, the “soluble on expression in E. coli” value was “not soluble”.

Turning to “PDLYNHAIVIGYGRVGSMLAQLLQSRHVPLLVIDDNSEHVLKAHAAGIPAIRGSAAADLVLAEAHPERAKIAVLAIPQPLEAGEILAKLRALNPELTLVARAQNDAEVKHLLGHGADATVVAEHEMAHSLAEMVLSSTNH”, the “soluble on expression in E. coli” value is listed as “not soluble”.

With “MGSDKIHHHHHHMGDRLYFERFIWFDSQIRNGCYPNASALARKFEFDIKTAQRSIEYFRDRLGAPLDYDASRRGYRYYDPNYQLPVTHLSESELVALLASRKLLTDAAAGPLGDELEKVSNRLGALLSNGLKGKINPERAFSFRWNGMAASDPVIFEQAVSALLSCRLLTFCYYSPLAGACTARTVEPHHMINYMGAWHLIAWCRLRNDWRDFHLARVSLAHLEEEIFSPRDETTWRPCLDETFGIFQNRERFDVTIRFSADRARWVREELWHQDQSTRDLDTGEVELTIPVSHEAEILMEVLKHGSHAEVMEPIWLRDRIREEIGKMQKKY”, the “soluble on expression in E. coli” value is listed as “not soluble”.

With “MGQRQAKQHMQAGVKLYHQRHYAQAINKWRQSLNRLNNAEDRFITLGYLAQALCDQGEYEGMLSYALSQMQLATDQNDSAMKCEAFLNLAKAYERLADFTKALQYGKASLEHPSMDPRTPGYAHLTIALAHLGMSQFQQCLESFESAMNVANETSDRLLELQICVGLGSLFTLLRDITKALIFLRNALAIVQSVTVDDVHAKYRCLILYHLSVALRMKGSLVDAKEACDEASQLAVEMGNRAIHARCMCSLADIYRELGESEAKETITKSWARYEDAYRVMRGANDKMGEVLVLSSMAKSASESRSHYTGQCECQAIQLNKKCIEIANQIGCKHVVLKCHLRLAELYSQLNDDDSEETARRAASRLTQEMQLFCNFCGQRYGLKDESLQALRCSHIFHEKCLHTYLLQRTDQTCPKCRCRAVLSDNISIRSSIASTIDVQSPSTSFAPPGGVATPLVSAAAELGDITPQATLTRRSQQDKILRGAEKDIDRVDRSLARLKSQQSAAANACSAVAVPSPEVPSTTASCASEPILTASTTSQSHTHSNANHKPPPPPRKPCCSQAALPPSSIVALPPAMPLAEDGPLVITHTPTVTDV”, the “soluble on expression in E. coli” value is recorded as “not soluble”.

On to “MTLIRWNPWQDLNTLQRQLNHLFEEDMLPSTLLERTLTRVPAAELHETAEVIYLKLELPGIDAKDVDLQVTDKAVYISGERKSETKTEDKGVFKSEFQYGKFQRVIPLPARIQNTNVTAEYKDGILNLTLPKAEVEKNKVVKINIESAAGLEHHHHHH”, for which the “soluble on expression in E. coli” value is on record as “soluble”.

Regarding “MANVGGRRKPAADARLEVIQKLFPEAVVDGGIDWELLKRVFGGHERQEAYEFTWPGKAEARRLAELPASGVLRPDQAASKQWETTNNWYIEGDNLEALKLLRTSHAGTIQMIYIDPPYNTGKVLTYKDNWRKGKAVVPSGIQEEARGHVGWLNMMYPRLWVARELLAETGAIFISIDDTEQANLRKMCDEIFGERNFVATFIWQRAFSPVNMNKFASRNHDFILCYAKNIDRLAWYGLPRHPEADVRYANPDNDPRGPWMSGDLSVGPPIPEKIYEIVTPSGRVVSPPNGYCWRVTKERFAELAADNRIWFGKDGNGVPRLKRFLSEVKSTVTPLTIWTHDEVSHSQEAKKELKELFDGLAVMDYPKPVKLIQRMVALTTRDDDPILDFFSGSATTAHAVMQQNAEDGGRRSFIMVQLPERLAETSEAYRVGFRTICDIGRERIRRAGEKIVYETGKTELDIGFKVFRIERTNQPAR”, the “soluble on expression in E. coli” value is listed as “not soluble”.

Regarding “MGNYLLRKLSCLGENQKKPKKGNPDEERKRQEMTTFERKLQDQDKKSQEVSSTSNQENENGSGSEEVCYTVINHIPHQRSSLSSNDDGYENIDSLTRKVRQFRERSETEYALLRTSVSRPCSCTHEHDYEVVFPH”, the “soluble on expression in E. coli” value is “soluble”.
